Measurements: publication PMC6771244, “VSTM2A suppresses colorectal cancer and antagonizes Wnt signaling receptor LRP6” (Theranostics, 2019)

T1: recombinant human LRP-6 Fc Chimera Protein (R&D, 1505-LR-025) (human, UniProt O75581 20-1370)
T1 construct: human LRP6 part of a commercial Fc chimera; also called LRP6 (1505-LR-025); source: bought: R&D
T1 sequence (looked up): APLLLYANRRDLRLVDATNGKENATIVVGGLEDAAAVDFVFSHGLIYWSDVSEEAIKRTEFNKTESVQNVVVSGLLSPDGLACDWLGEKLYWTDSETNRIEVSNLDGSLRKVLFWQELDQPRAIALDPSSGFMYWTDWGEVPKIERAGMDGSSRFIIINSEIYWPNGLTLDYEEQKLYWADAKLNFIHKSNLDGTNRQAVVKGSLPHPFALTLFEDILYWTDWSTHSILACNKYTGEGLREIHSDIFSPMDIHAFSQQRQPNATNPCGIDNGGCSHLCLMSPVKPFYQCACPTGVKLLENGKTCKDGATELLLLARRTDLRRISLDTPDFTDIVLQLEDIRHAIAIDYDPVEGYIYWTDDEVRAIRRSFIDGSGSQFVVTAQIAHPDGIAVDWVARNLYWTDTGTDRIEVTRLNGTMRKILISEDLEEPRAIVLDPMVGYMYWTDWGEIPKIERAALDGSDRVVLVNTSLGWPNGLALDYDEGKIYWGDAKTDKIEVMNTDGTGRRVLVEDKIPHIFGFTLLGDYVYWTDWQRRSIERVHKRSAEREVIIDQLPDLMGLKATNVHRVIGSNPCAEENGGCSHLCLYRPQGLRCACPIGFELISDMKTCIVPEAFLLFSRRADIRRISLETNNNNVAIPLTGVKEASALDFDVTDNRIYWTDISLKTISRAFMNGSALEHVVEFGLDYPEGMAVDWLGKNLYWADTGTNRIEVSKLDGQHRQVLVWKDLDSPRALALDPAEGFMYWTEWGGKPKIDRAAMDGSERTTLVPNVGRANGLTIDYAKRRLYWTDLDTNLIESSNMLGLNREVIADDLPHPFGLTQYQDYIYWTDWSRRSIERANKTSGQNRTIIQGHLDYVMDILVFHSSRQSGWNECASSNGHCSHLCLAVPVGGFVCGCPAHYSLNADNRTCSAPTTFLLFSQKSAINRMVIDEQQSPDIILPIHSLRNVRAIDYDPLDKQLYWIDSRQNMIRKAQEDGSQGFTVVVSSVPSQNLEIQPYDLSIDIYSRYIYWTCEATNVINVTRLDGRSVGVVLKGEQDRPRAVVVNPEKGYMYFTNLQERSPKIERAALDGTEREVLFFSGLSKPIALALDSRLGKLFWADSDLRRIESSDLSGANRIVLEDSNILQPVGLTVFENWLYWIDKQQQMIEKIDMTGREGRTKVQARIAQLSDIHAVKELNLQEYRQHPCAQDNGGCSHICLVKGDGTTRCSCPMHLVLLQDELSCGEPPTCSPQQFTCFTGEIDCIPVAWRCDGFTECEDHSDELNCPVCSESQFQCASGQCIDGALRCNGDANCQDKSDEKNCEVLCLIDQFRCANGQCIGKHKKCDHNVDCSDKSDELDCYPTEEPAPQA


Key:
[1] = target: DKK1 (Homo sapiens) (UniProt O94907); test: SPR; conditions: cited from earlier work
Chain of DKK1 (Homo sapiens) (O94907 32-266): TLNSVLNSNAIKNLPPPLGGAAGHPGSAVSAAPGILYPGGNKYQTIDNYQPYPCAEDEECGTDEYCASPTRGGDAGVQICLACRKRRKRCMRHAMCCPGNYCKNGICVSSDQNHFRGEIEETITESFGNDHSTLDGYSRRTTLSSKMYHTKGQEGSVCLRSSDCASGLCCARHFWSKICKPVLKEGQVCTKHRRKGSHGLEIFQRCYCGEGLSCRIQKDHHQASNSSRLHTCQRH

[2] = target: T1, recombinant human LRP-6 Fc Chimera …; test: ELISA; titration ELISA; 5 ug/ml LRP-6 Fc immobilised on the plate at 4 °C for 12 h, blocked with 5% BSA in PBS; VSTM2A His-tag serial dilution (start 100 ug/ml, factor 4) for 2 h at room temperature, in duplicate; interaction fixed by DTSSP; pNPP read at OD405; conditions: both partners purified

Row | Kd [2] [nM] | Molecule | Kd [1] [nM]
1 |  | LRP6 (from UniProt O75581) | 0.6
2 | 9.19 | Recombinant Human VSTM2A His-tag Protein (R&D, 10037-VT) (ligand, UniProt Q8TAG5 25-236, looked up, human VSTM2A, commercial recombinant protein; also called recombinant VSTM2A; VSTM2A pure protein; source: bought: R&D) SQAKFTEFPRNVTATEGQNVEMSCAFQSGSASVYLEIQWWFLRGPEDLDPGAEGAGAQVELLPDRDPDSDGTKISTVKVQGNDISHKLQISKVRKKDEGLYECRVTDANYGELQEHKAQAYLKVNANSHARRMQAFEASPMWLQDMKPRKNVSAAIPSSIHGSANQRTHSTSSPQVVAKIPKQSPQSGARIATSHGLSVLLLVCGFVKGALL | 
